Assay results as given in article PMC10790770.

Experiments:
Test in all cases: cross-linking; cysteine cross-linking with CuCl2 in E. coli co-producing the T2SS lacking pulF (pCHAP8252) and PulF or PulFΔN Cys variants (pCHAP8259 derivatives); total extracts on 4%–15% SDS gradient gels, blot with anti-PulFC
[1] = target: PulF^V171C-P371C (K. oxytoca) (UniProt P15745)
[2] = target: PulF^Y168C-E370C (K. oxytoca) (UniProt P15745)
[3] = target: PulFΔN^V171C-P371C (K. oxytoca) (UniProt P15745)
[4] = target: PulFΔN^Y168C-E370C (K. oxytoca) (UniProt P15745)

PulF^V171C-P371C (from UniProt P15745 1-381) (natural protein)
stoichiometry N [1]: 3

PulF^Y168C-E370C (from UniProt P15745 1-381) (natural protein)
stoichiometry N [2]: 3

PulFΔN^V171C-P371C (from UniProt P15745 35-381) (domain or fragment)
stoichiometry N [3]: 3

PulFΔN^Y168C-E370C (from UniProt P15745 35-381) (domain or fragment)
stoichiometry N [4]: 3
